{"source": "patent US20040157774A1", "about": "(published 2004)", "binders": {"B1": {"name": "human Gas6_Flag (human Growth Arrest Specific Gene 6 protein with a Flag epitope tag at the C-terminus) (ligand)", "chain": "ALLPAREATQFLRPRQRRAFQVFEEAKQGHLERECVEELCSREEAREVFENDPETDYFYPRYLDCINKYGSPYTKNSGFATCVQNLPDQCTPNPCDRKGTQACQDLMGNFFCLCKAGWGGRLCDKDVNECSQENGGCLQICHNKPGSFHCSCHSGFELSSDGRTCQDIDECADSEACGEARCKNLPGSYSCLCDEGFAYSSQEKACRDVDECLQGRCEQVCVNSPGSYTCHCDGRGGLKLSQDMDTCEDILPCVPFSVAKSVKSLYLGRMFSGTPVIRLRFKRLQPTRLVAEFDFRTFDPEGILLFAGGHQDSTWIVLALRAGRLELQLRYNGVGRVTSSGPVINHGMWQTISVEELARNLVIKVNRDAVMKIAVAGDLFQPERGLYHLNLTVGGIPFHEKDLVQPINPRLDGCMRSWNWLNGEDTTIQETVKVNTRMQCFSVTERGSFYPGSGFAFYSLDYMRTPLDVGTESTWEVEVVAHIRPAADTGVLFALWAPDLRAVPLSVALVDYHSTKKLKKQLVVLAVEHTALALMEIKVCDGQEHVVTVSLRDGEATLEVDGTRGQSEVSAAQLQERLAVLERHLRSPVLTFAGGLPDVPVTSAPVTAFYRGCMTLEVNRRLLDLDEAAYKHSDITAHSCPPVEPAAADYKDDDDK", "notes": "Expressed from full-length cDNA in HEK293 cells grown with vitamin K1 and purified on anti-Flag M2 resin; 2'; also called Gas6_tag"}}, "molecular_target": "T1, Axl-Fc (R&D Systems) (UniProt P30530-2 26-440, limits assumed)", "T1 construct": "Bought reagent (R&D Systems, Minneapolis); also called Axl-Fc receptor; not shown: Fc part of the bought fusion", "T1 sequence (looked up)": "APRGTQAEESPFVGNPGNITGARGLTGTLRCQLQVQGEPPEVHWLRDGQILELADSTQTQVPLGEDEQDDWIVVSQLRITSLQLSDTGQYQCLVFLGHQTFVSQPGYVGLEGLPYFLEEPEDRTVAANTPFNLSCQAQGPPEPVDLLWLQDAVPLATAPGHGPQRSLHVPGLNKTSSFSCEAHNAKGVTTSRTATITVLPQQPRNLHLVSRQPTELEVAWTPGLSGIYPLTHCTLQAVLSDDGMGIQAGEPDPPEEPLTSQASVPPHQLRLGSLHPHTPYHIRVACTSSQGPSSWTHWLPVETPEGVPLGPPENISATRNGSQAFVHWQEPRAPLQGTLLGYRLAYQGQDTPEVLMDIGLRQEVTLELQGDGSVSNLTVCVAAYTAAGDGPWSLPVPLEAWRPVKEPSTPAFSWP", "experiment": "EIA: plate coated with Axl-Fc, Gas6_Flag detected with HRP anti-Flag M2 antibody, OD490", "data": [{"binder": "B1", "values": [{"measurement": "EC50", "value": "~0.02", "unit": "µg/mL"}]}]}
